Assay [1] addresses coatomer protein I (COP-I), endogenous, HEK cells (human (endogenous in HEK-293)) (UniProt P53618). Nature of the assay: co-IP; lysates of HEK cells transfected with V5 tagged constructs, immunoprecipitated with anti COP I antibody, blot with anti V5 antibody.
The target of assay [2] is NF-PLN RΔ14 (rabbit) (UniProt P61015). In words: co-IP; lysates of transfected HEK cells, FLAG-tagged PLN constructs precipitated with anti-Flag antibody and Protein G-Sepharose, 4°C, 0.1% Triton-X100, blot with COP I antibody.
The target in assay [3] is NF-R13E/R14E (N-terminally FLAG-tagged PLN R13E/R14E) (rabbit) (UniProt P61015). The description is as above.
Assay [4] concerns the target coatomer protein I (COP-I), endogenous, HEK cells (human (endogenous in HEK-293)) (UniProt P53618). Nature of the assay: co-IP; lysates of HEK cells transfected with V5 tagged constructs, immunoprecipitated with anti COP I antibody, blot with anti V5 antibody. The source holds these as a separate data set.

Like-named read-outs stand apart in the source and are kept apart here.

As to “V5 tagged Sigma 1R R7E/R8E (from UniProt Q99720 1-223) (natural protein)”, the fold band intensity of the wild type over this mutant in assay [1] was above 2 fold.
As to “coatomer protein I (COP-I), endogenous, HEK cells (from UniProt P53618 1-953) (complex)”, the fold reduction in band intensity against NF-PLN in assay [2] and in assay [3] was 5 fold each time.

B1: V5 tagged SR β R7E/R8E (natural protein)
chain: MASADSEEVADGGGAGGTFQPYLDTLRQELQQTDPTLLSVVVAVLAVLLTLVFWKLIRSRRSSQRAVLLVGLCDSGKTLLFVRLLTGLYRDTQTSITDSCAVYRVNNNRGNSLTLIDLPGHESLRLQFLERFKSSARAIVFVVDSAAFQREVKDVAEFLYQVLIDSMGLKNTPSFLIACNKQDIAMAKSAKLIQQQLEKELNTLRVTRSAAPSTLDSSSTAPAQLGKKGKEFEFSQLPLKVEFLECSAKGGRGDVGSADIQDLEKWLAKIA
In turn, B1 displayed a fold band intensity of the wild type over this mutant in assay [4] above 2 fold.
